Assay results from patent US20220098240A1 (FUJIFILM, published 2022).
Bridge positions count the residues as written; N and C are the ends. Square brackets hold non-standard residues; d marks the D form. Ends that are not written are not given here. COCH2 = acetyl group that carries the bridge; hCys = N[C@@H](CCS)C(=O)O; Orn = NCCC[C@H](N)C(=O)O; Dab = NCC[C@H](N)C(=O)O; Dap = NC[C@H](N)C(=O)O

B1: Cyclic peptide 7 (peptide)
peptide: {CH2CO}-I[hCys]RGD[Dab]F[hCys]KKK
modifications: thioether N-8; bridge 2-6; not fully specified (residue 6, bridges); printed as I- -RGD F-(Hcy)-KKK
B2: Cyclic peptide 10 (peptide)
peptide: ICRGD[Orn]FCKKK
modifications: bridge N-8, 2-6; not fully specified (residue 6, N-terminus, bridges)
notes: bicyclic; all residues L; immobilised on CM5 chip through amino groups
B3: Cyclic peptide 13 (peptide)
peptide: XXRGDXFCKKK
modifications: not fully specified; thioether: I1 alpha-NH2 through acetyl to C8; thioether: Dap(acetyl)2 to Hcy6
notes: as for B2
B4: Cyclic peptide 19 (peptide)
peptide: {CH2CO}-I[hCys]RGD[Dab](COCH2)FCKKK
modifications: thioether 2-6 via Ac; thioether N-8; not fully specified
notes: as for B2
B5: Cyclic peptide 6 (peptide)
peptide: {CH2CO}-ICRGD[Dap](COCH2)FCKKK
modifications: thioether 2-6 via Ac; thioether N-8
notes: as for B2

The binders below were run against T1, human integrin αvβ5 (human, UniProt P06756 31-992; P18084 24-719) (assay: SPR, Biacore 3000, peptide immobilised on CM5 chip, integrin 30-1000 nM flowed; grade B = dissociation constant more than 50 nM and 100 nM or less).
T1 construct: soluble analyte in SPR at 30, 100, 300 and 1,000 nM in HEPES buffer with 5 mM magnesium chloride; heterodimer of an alpha and a beta chain
T1 sequence (P06756 31-992, chain 1 of 2): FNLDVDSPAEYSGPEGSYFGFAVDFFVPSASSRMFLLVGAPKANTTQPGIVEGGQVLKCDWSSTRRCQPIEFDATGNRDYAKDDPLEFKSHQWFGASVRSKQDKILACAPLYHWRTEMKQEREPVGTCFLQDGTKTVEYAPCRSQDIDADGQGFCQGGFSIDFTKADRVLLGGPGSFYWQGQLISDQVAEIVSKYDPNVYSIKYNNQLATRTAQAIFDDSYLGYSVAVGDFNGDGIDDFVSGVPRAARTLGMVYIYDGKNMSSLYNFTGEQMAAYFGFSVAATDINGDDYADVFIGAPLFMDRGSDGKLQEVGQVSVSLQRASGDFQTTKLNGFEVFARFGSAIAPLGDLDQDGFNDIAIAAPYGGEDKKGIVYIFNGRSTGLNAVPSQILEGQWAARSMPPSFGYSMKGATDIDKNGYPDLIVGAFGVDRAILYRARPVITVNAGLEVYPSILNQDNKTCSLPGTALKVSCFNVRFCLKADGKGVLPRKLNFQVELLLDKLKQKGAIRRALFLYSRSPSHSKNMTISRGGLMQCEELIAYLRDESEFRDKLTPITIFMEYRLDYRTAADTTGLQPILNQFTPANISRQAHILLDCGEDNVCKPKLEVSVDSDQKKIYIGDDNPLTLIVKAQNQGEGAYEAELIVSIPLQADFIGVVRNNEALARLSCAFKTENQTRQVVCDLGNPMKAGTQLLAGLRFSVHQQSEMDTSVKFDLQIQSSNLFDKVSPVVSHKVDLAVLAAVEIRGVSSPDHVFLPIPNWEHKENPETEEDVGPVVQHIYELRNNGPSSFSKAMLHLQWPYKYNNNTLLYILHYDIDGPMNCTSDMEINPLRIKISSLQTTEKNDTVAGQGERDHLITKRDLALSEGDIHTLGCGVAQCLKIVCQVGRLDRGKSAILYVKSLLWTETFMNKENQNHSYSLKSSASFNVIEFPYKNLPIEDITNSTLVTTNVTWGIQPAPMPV
T1 sequence (P18084 24-719, chain 2 of 2): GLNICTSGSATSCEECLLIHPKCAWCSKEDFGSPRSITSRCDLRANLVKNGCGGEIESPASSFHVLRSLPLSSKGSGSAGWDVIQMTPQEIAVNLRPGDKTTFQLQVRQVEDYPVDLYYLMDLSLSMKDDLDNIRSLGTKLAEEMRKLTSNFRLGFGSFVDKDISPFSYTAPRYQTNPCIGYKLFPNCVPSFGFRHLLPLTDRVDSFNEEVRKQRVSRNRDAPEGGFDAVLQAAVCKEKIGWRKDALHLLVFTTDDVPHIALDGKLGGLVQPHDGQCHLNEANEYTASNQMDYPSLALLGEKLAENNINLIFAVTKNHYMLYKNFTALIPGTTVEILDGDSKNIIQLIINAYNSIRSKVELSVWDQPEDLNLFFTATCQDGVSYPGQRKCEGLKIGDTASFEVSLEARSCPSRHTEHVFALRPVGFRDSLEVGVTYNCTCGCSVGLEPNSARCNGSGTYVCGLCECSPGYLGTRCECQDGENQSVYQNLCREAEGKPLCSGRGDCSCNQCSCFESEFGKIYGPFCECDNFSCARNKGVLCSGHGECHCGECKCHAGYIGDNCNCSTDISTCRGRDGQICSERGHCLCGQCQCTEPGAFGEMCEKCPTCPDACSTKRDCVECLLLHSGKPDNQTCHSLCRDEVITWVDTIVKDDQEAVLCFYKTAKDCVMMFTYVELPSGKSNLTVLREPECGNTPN
Method: (§1) However, only for the cyclic peptide 22, in which the number of lysine residues having an amino group as the immobilizing functional group was 1, the sample solution to be supplied to the sensor chip was set to 5,000 μL instead of 300 μL. Similarly, 70 μL of the mixed aqueous solution of 0.2 M EDC and 0.04 M NHS was added to another flow channel of the same sensor chip without immobilizing the sample, and then blocking treatment and washing treatment were carried out. Hereinafter, the obtained immobilization-treated sensor chip is referred to as an “immobilization-treated sensor chip A”.
(§2) After adding human integrin αvβ5 for 10 minutes at 25° C., which was diluted to 30 nM using a HEPES buffer solution to which magnesium chloride was added to 5 mM, in each flow channel of the immobilization-treated sensor chip A prepared in (1) above, the same HEPES buffer solution (containing 5 mM magnesium chloride) was allowed to flow as a running buffer for 30 minutes, and measurement was carried out with Biacore 3000.
(§3) Then, a regeneration treatment of removing human integrin αvβ5 was carried out by allowing a 0.5 M EDTA aqueous solution to flow through each flow channel for 10 minutes. Further, the above-described measurement process consisting of adding integrin for 10 minutes, allowing a running buffer to flow for 30 minutes, carrying out measurement with Biacore 3000, and carrying out regeneration treatment with 0.5 M EDTA aqueous solution was carried out in the same manner for 100 nM human integrin αvβ5, 300 nM human integrin αvβ5, and 1,000 nM human integrin αvβ5. Dissociation constant between the cyclic peptide and human integrin αvβ5 was calculated from the difference between the value measured by Biacore 3000 in the flow channel immobilized with the cyclic peptide and the value measured by Biacore 3000 in the flow channel unimmobilized with the cyclic peptide, in a case where each concentration of human integrin αvβ5 was allowed to flow, and the integrin binding property was evaluated according to the following evaluation standards. It is preferable that the evaluation result satisfies the evaluation standard A, B, or C.
{CH2CO}-I[hCys]RGDK(COCH2)FA[hCys]KKK (thioether 2-6, N-9) [Cyclic peptide 34] showed a dissociation constant of 50 to 100 nM.
Work on A[hCys][hCys]RGDK(COCH2)FK(COCH2)KKK (thioether 2-9, 3-7) [Cyclic peptide 36] yielded a dissociation constant of 50 to 100 nM.
KKK[hCys][hCys]RGDK(COCH2)FK(COCH2)A (thioether 4-11, 5-9) [Cyclic peptide 37] was tested, and the dissociation constant was 50 to 100 nM.
{CH2CO}-IK(COCH2)RGD[hCys]F[hCys]KKK (thioether 2-6, N-8) [Cyclic peptide 4] was tested, and the dissociation constant (KD) was 50 to 100 nM.
In the case of {CH2CO}-V[hCys]RGD[Orn](COCH2)F[hCys]KKK (thioether 2-6, N-8) [Cyclic peptide 41], the dissociation constant is reported as 50 to 100 nM.
{CH2CO}-I[hCys]RGD[Dap](COCH2)F[hCys]KKK (thioether 2-6, N-8) [Cyclic peptide 5] showed a dissociation constant (KD) of 50 to 100 nM.
With B1 the dissociation constant (KD) was 50 to 100 nM.
In the case of {CH2CO}-I[hCys]RGD[Orn](COCH2)F[hCys]KKK (thioether 2-6, N-8) [Cyclic peptide 9], the dissociation constant (KD) is reported as 50 to 100 nM.
With B2 the “dissociation constant (KD)” value was 50 to 100 nM.
B3 was tested, and the “dissociation constant (KD)” value was 50 to 100 nM.
With B4 the “dissociation constant (KD)” value was 50 to 100 nM.

The binders below were run against T1, human integrin αvβ5 (assay: SPR, Biacore 3000, peptide immobilised on CM5 chip, integrin 30-1000 nM flowed; grade C = dissociation constant more than 100 nM and 200 nM or less).
Method: as §1, §2
as §3, with “It is preferable that the evaluation result satisfies the evaluation standard A, B, or C.” left out
{CH2CO}-I[Dab](COCH2)RGD[hCys]F[hCys]KKK (thioether 2-6, N-8) [Cyclic peptide 2] was tested, and the dissociation constant (KD) was 100 to 200 nM.
{CH2CO}-I[hCys]RGDK(COCH2)FR[hCys]KKK (thioether 2-6, N-9) [Cyclic peptide 33] showed a dissociation constant of 100 to 200 nM.
In the case of B5, the “dissociation constant (KD)” value is reported as 100 to 200 nM.
